The values that follow come from article PMC8065156, “Specificity of AMPylation of the human chaperone BiP is mediated by TPR motifs of FICD” (Nature Communications, 2021).

Experiment [1] concerns the target T1, BiP 19–654 (human, UniProt P11021 19-654). The experiment in a line: cell-based or functional assay.
For the next experiment, the target named is T2, BiP 28–549 T229A (human, UniProt P11021 28-549, T229A, T518 covalently linked through TReND-2 to C404 of FICD).
T2 construct: BiP, human, residues 28-549 of NP_005338.1; also called complexed BiP; source: E. coli Rosetta (DE3), purified (Ni-NTA, SEC); not shown: His6, N-terminal, cleaved
The experiment in a line: crystal structure; complex covalently linked through TReND-2 (C404 of FICD to T518 of BiP); crystallised with 1 mM AMP-PNP, 1 mM MgCl2, 10% glycerol; 0.2 M NaCl, 0.1 M Na/K phosphate pH 6.2, 10% PEG 8000, 19 °C. As to conditions: both partners purified.

Experiment [2] addresses T1, BiP 19–654.
Experiment [3] has as its target T1, BiP 19–654. This is another data set of the same source.
In a further experiment the target is BiP 19–654 R197A (human, UniProt P11021 19-654, R197A). Description: cell-based or functional assay.
The target of the next experiment is BiP 19–654 V241A (human, UniProt P11021 19-654, V241A). The experiment in a line: cell-based or functional assay.
The target in the next experiment is BiP 19–654 D238A (human, UniProt P11021 19-654, D238A). Description: cell-based or functional assay.
The next experiment addresses BiP 19–654 E217A (human, UniProt P11021 19-654, E217A). The experiment in a line: cell-based or functional assay.
For another experiment, the target named is BiP 19–654 V415A (human, UniProt P11021 19-654, V415A). The experiment in a line: cell-based or functional assay.
In a further experiment the target is T3, BiP 19–654 T229A T518A (human, UniProt P11021 19-654, T229A | T518A).
T3 construct: BiP, human, residues 19-654 of NP_005338.1; source: E. coli Rosetta (DE3), purified (Ni-NTA, SEC)
The experiment in a line: SEC; 5 µM FICD incubated with 100 µM BiP in HKM buffer with 5 mM ATP for at least 2 h; Superdex 10/300 75 pg. As to conditions: both partners purified.

T1 sequence (P11021 19-654): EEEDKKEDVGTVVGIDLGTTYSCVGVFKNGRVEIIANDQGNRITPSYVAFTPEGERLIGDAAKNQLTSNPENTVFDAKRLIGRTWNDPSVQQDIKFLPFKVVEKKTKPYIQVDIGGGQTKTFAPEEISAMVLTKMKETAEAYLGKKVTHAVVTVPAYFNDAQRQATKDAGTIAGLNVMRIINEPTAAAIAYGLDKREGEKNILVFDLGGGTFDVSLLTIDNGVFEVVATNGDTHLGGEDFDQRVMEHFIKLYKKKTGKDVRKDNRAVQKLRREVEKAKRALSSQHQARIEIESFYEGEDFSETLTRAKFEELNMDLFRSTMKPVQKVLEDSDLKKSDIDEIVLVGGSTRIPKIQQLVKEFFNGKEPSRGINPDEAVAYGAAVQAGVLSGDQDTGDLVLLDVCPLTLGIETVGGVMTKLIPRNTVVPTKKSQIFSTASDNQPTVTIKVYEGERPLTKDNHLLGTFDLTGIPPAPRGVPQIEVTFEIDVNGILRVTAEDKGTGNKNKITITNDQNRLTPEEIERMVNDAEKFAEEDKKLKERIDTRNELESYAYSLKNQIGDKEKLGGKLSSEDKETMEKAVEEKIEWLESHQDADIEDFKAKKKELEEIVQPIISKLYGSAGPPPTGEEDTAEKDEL
Chain of BiP 19–654 E217A (P11021 19-654 E217A): as the sequence (P11021 19-654) above, with E199A counted along it
Chain of BiP 19–654 R197A (P11021 19-654 R197A): as the sequence (P11021 19-654) above, with R179A counted along it
Chain of BiP 19–654 D238A (P11021 19-654 D238A): as the sequence (P11021 19-654) above, with D220A counted along it
Chain of BiP 19–654 V241A (P11021 19-654 V241A): as the sequence (P11021 19-654) above, with V223A counted along it
Chain of BiP 19–654 V415A (P11021 19-654 V415A): as the sequence (P11021 19-654) above, with V397A counted along it
T2 sequence (P11021 28-549 T229A): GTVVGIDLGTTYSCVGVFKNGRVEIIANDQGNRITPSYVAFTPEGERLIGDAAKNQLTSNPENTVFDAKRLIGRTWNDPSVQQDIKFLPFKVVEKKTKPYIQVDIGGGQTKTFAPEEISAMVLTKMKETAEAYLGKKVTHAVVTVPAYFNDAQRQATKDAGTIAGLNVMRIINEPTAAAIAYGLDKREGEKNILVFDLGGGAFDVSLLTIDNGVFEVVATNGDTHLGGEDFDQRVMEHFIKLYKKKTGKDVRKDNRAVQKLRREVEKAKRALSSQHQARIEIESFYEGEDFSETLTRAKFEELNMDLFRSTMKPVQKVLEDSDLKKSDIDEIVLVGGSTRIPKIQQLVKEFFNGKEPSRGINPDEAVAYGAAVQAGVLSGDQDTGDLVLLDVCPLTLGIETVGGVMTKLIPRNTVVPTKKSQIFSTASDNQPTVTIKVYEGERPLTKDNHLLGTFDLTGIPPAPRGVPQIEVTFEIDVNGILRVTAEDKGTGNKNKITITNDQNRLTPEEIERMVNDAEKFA
T3 sequence (P11021 19-654 T229A/T518A): as the sequence (P11021 19-654) above, with T211A, T500A counted along it

B1: FICD 102–445 E234G E404C^TReND-2 (enzyme, human, UniProt Q9BVA6 102-445, looked up)
chain: GKLEARAALNQALEMKRQGKREKAQKLFMHALKMDPDFVDALTEFGIFSEEDKDIIQADYLYTRALTISPYHEKALVNRDRTLPLVEEIDQRYFSIIDSKVKKVMSIPKGNSALRRVMEETYYHHIYHTVAIGGNTLTLSEIRHILETRYAVPGKSLEEQNEVIGMHAAMKYINTTLVSRIGSVTISDVLEIHRRVLGYVDPVEAGRFRTTQVLVGHHIPPHPQDVEKQMQEFVQWLNSEEAMNLHPVEFAALAHYKLVYIHPFIDGNGRTSRLLMNLILMQAGYPPITIRKEQRSDYYHVLCAANEGDVRPFIRFIAKCTETTLDTLLFATTEYSVALPEAQP
modifications: TReND-2 (thiol-reactive nucleotide derivative) on C404
For the molecule B1, in the experiment with BiP 19–654 [1], the “rate of covalent ternary complex formation (SDS-PAGE, densitometry) with 0.5 mM ATP against 0.5 mM ADP” value is approximately 15 fold faster and the “rate of covalent ternary complex formation (SDS-PAGE, densitometry) without nucleotide against 0.5 mM ATP” value came to 173 fold slower.

B2: FICD 102–445 T168A T183A E234G L258D E404C^TReND-2 (enzyme, human, UniProt Q9BVA6 102-445, looked up)
chain: GKLEARAALNQALEMKRQGKREKAQKLFMHALKMDPDFVDALTEFGIFSEEDKDIIQADYLYTRALAISPYHEKALVNRDRALPLVEEIDQRYFSIIDSKVKKVMSIPKGNSALRRVMEETYYHHIYHTVAIGGNTLTLSEIRHILETRYAVPGKSDEEQNEVIGMHAAMKYINTTLVSRIGSVTISDVLEIHRRVLGYVDPVEAGRFRTTQVLVGHHIPPHPQDVEKQMQEFVQWLNSEEAMNLHPVEFAALAHYKLVYIHPFIDGNGRTSRLLMNLILMQAGYPPITIRKEQRSDYYHVLCAANEGDVRPFIRFIAKCTETTLDTLLFATTEYSVALPEAQP
modifications: TReND-2 (thiol-reactive nucleotide derivative) on C404, covalently linked to T518 of BiP
notes: FICD (HYPE), human, residues 102-445 of NP_009007.2; also called FICD^TReND-2; HYPE; source: E. coli Rosetta (DE3), purified (Ni-NTA, SEC)
For B2, the binding result in the experiment with BiP 28–549 T229A was “binds”.

B3: FICD 102–458 L258D E105A (enzyme)
chain: GKLAARAALNQALEMKRQGKREKAQKLFMHALKMDPDFVDALTEFGIFSEEDKDIIQADYLYTRALTISPYHEKALVNRDRTLPLVEEIDQRYFSIIDSKVKKVMSIPKGNSALRRVMEETYYHHIYHTVAIEGNTLTLSEIRHILETRYAVPGKSDEEQNEVIGMHAAMKYINTTLVSRIGSVTISDVLEIHRRVLGYVDPVEAGRFRTTQVLVGHHIPPHPQDVEKQMQEFVQWLNSEEAMNLHPVEFAALAHYKLVYIHPFIDGNGRTSRLLMNLILMQAGYPPITIRKEQRSDYYHVLEAANEGDVRPFIRFIAKCTETTLDTLLFATTEYSVALPEAQPNHSGFKETLPVKP
With B3, the AMPylation of BiP 19–654 WT by the FICD 102–458 L258D mutant, 30 min, western blot with αAMP antibody, against FICD L258D with BiP 19–654 [2] amounted to 80 % reduction.

B4: FICD 102–458 L258D R396A (enzyme)
chain: GKLEARAALNQALEMKRQGKREKAQKLFMHALKMDPDFVDALTEFGIFSEEDKDIIQADYLYTRALTISPYHEKALVNRDRTLPLVEEIDQRYFSIIDSKVKKVMSIPKGNSALRRVMEETYYHHIYHTVAIEGNTLTLSEIRHILETRYAVPGKSDEEQNEVIGMHAAMKYINTTLVSRIGSVTISDVLEIHRRVLGYVDPVEAGRFRTTQVLVGHHIPPHPQDVEKQMQEFVQWLNSEEAMNLHPVEFAALAHYKLVYIHPFIDGNGRTSRLLMNLILMQAGYPPITIRKEQASDYYHVLEAANEGDVRPFIRFIAKCTETTLDTLLFATTEYSVALPEAQPNHSGFKETLPVKP
For B4, the AMPylation of BiP 19–654 WT by the FICD 102–458 L258D Fic-domain mutant, 30 min, western blot with αAMP antibody, against FICD L258D with BiP 19–654 [3] was 95 % decrease.

B5: FICD 102–458 L258D E404A (enzyme)
chain: GKLEARAALNQALEMKRQGKREKAQKLFMHALKMDPDFVDALTEFGIFSEEDKDIIQADYLYTRALTISPYHEKALVNRDRTLPLVEEIDQRYFSIIDSKVKKVMSIPKGNSALRRVMEETYYHHIYHTVAIEGNTLTLSEIRHILETRYAVPGKSDEEQNEVIGMHAAMKYINTTLVSRIGSVTISDVLEIHRRVLGYVDPVEAGRFRTTQVLVGHHIPPHPQDVEKQMQEFVQWLNSEEAMNLHPVEFAALAHYKLVYIHPFIDGNGRTSRLLMNLILMQAGYPPITIRKEQRSDYYHVLAAANEGDVRPFIRFIAKCTETTLDTLLFATTEYSVALPEAQPNHSGFKETLPVKP
With B5, the AMPylation of BiP 19–654 WT by the FICD 102–458 L258D Fic-domain mutant, 30 min, western blot with αAMP antibody, against FICD L258D with BiP 19–654 [3] was determined as 75 % impaired.

B6: FICD 102–458 L258D H318A (enzyme)
chain: GKLEARAALNQALEMKRQGKREKAQKLFMHALKMDPDFVDALTEFGIFSEEDKDIIQADYLYTRALTISPYHEKALVNRDRTLPLVEEIDQRYFSIIDSKVKKVMSIPKGNSALRRVMEETYYHHIYHTVAIEGNTLTLSEIRHILETRYAVPGKSDEEQNEVIGMHAAMKYINTTLVSRIGSVTISDVLEIHRRVLGYVDPVEAGRFRTTQVLVGAHIPPHPQDVEKQMQEFVQWLNSEEAMNLHPVEFAALAHYKLVYIHPFIDGNGRTSRLLMNLILMQAGYPPITIRKEQRSDYYHVLEAANEGDVRPFIRFIAKCTETTLDTLLFATTEYSVALPEAQPNHSGFKETLPVKP
With B6, the AMPylation of BiP 19–654 WT by the FICD 102–458 L258D Fic-domain mutant, 30 min, western blot with αAMP antibody, against FICD L258D with BiP 19–654 [3] is 45 % impaired.

B7: FICD 102–458 L258D K124A (enzyme)
chain: GKLEARAALNQALEMKRQGKREAAQKLFMHALKMDPDFVDALTEFGIFSEEDKDIIQADYLYTRALTISPYHEKALVNRDRTLPLVEEIDQRYFSIIDSKVKKVMSIPKGNSALRRVMEETYYHHIYHTVAIEGNTLTLSEIRHILETRYAVPGKSDEEQNEVIGMHAAMKYINTTLVSRIGSVTISDVLEIHRRVLGYVDPVEAGRFRTTQVLVGHHIPPHPQDVEKQMQEFVQWLNSEEAMNLHPVEFAALAHYKLVYIHPFIDGNGRTSRLLMNLILMQAGYPPITIRKEQRSDYYHVLEAANEGDVRPFIRFIAKCTETTLDTLLFATTEYSVALPEAQPNHSGFKETLPVKP
Consider B7, for which the AMPylation of BiP 19–654 WT by the FICD 102–458 L258D mutant, 30 min, western blot with αAMP antibody, against FICD L258D with BiP 19–654 [2] was more than 98 % reduction.

B8: FICD 102–458 L258D K127A (enzyme)
chain: GKLEARAALNQALEMKRQGKREKAQALFMHALKMDPDFVDALTEFGIFSEEDKDIIQADYLYTRALTISPYHEKALVNRDRTLPLVEEIDQRYFSIIDSKVKKVMSIPKGNSALRRVMEETYYHHIYHTVAIEGNTLTLSEIRHILETRYAVPGKSDEEQNEVIGMHAAMKYINTTLVSRIGSVTISDVLEIHRRVLGYVDPVEAGRFRTTQVLVGHHIPPHPQDVEKQMQEFVQWLNSEEAMNLHPVEFAALAHYKLVYIHPFIDGNGRTSRLLMNLILMQAGYPPITIRKEQRSDYYHVLEAANEGDVRPFIRFIAKCTETTLDTLLFATTEYSVALPEAQPNHSGFKETLPVKP
As to B8, the AMPylation of BiP 19–654 WT by the FICD 102–458 L258D mutant, 30 min, western blot with αAMP antibody, against FICD L258D with BiP 19–654 [2] was more than 98 % reduction.

B9: FICD 102–458 L258D (enzyme, human, UniProt Q9BVA6 102-458, looked up)
chain: GKLEARAALNQALEMKRQGKREKAQKLFMHALKMDPDFVDALTEFGIFSEEDKDIIQADYLYTRALTISPYHEKALVNRDRTLPLVEEIDQRYFSIIDSKVKKVMSIPKGNSALRRVMEETYYHHIYHTVAIEGNTLTLSEIRHILETRYAVPGKSDEEQNEVIGMHAAMKYINTTLVSRIGSVTISDVLEIHRRVLGYVDPVEAGRFRTTQVLVGHHIPPHPQDVEKQMQEFVQWLNSEEAMNLHPVEFAALAHYKLVYIHPFIDGNGRTSRLLMNLILMQAGYPPITIRKEQRSDYYHVLEAANEGDVRPFIRFIAKCTETTLDTLLFATTEYSVALPEAQPNHSGFKETLPVKP
notes: FICD (HYPE), human, residues 102-458 of NP_009007.2; also called FICD L258D; monomeric FICD; source: E. coli Rosetta (DE3), purified (Ni-NTA, SEC)
Regarding B9, the “AMPylation of the BiP 19–654 mutant by FICD 102–458 L258D, 30 min, western blot with αAMP antibody, against BiP WT” value with BiP 19–654 R197A was more than 80 % decrease; with BiP 19–654 V241A it was more than 95 % decrease; in the experiment with BiP 19–654 D238A, more than 80 % decrease; with BiP 19–654 E217A, more than 80 % decrease; with BiP 19–654 V415A, 70 % decrease. In addition, in the experiment with BiP 19–654 T229A T518A, the binding result is on record as “binds”.

B10: FICD 102–458 L258D K121A (enzyme)
chain: GKLEARAALNQALEMKRQGAREKAQKLFMHALKMDPDFVDALTEFGIFSEEDKDIIQADYLYTRALTISPYHEKALVNRDRTLPLVEEIDQRYFSIIDSKVKKVMSIPKGNSALRRVMEETYYHHIYHTVAIEGNTLTLSEIRHILETRYAVPGKSDEEQNEVIGMHAAMKYINTTLVSRIGSVTISDVLEIHRRVLGYVDPVEAGRFRTTQVLVGHHIPPHPQDVEKQMQEFVQWLNSEEAMNLHPVEFAALAHYKLVYIHPFIDGNGRTSRLLMNLILMQAGYPPITIRKEQRSDYYHVLEAANEGDVRPFIRFIAKCTETTLDTLLFATTEYSVALPEAQPNHSGFKETLPVKP
B10: the AMPylation of BiP 19–654 WT by the FICD 102–458 L258D mutant, 30 min, western blot with αAMP antibody, against FICD L258D in the experiment with BiP 19–654 [2] was more than 98 % reduction.

B11: FICD 102–458 L258D H401A (enzyme)
chain: GKLEARAALNQALEMKRQGKREKAQKLFMHALKMDPDFVDALTEFGIFSEEDKDIIQADYLYTRALTISPYHEKALVNRDRTLPLVEEIDQRYFSIIDSKVKKVMSIPKGNSALRRVMEETYYHHIYHTVAIEGNTLTLSEIRHILETRYAVPGKSDEEQNEVIGMHAAMKYINTTLVSRIGSVTISDVLEIHRRVLGYVDPVEAGRFRTTQVLVGHHIPPHPQDVEKQMQEFVQWLNSEEAMNLHPVEFAALAHYKLVYIHPFIDGNGRTSRLLMNLILMQAGYPPITIRKEQRSDYYAVLEAANEGDVRPFIRFIAKCTETTLDTLLFATTEYSVALPEAQPNHSGFKETLPVKP
With B11, in the experiment with BiP 19–654 [3], the AMPylation of BiP 19–654 WT by the FICD 102–458 L258D Fic-domain mutant, 30 min, western blot with αAMP antibody, against FICD L258D is 60 % impaired.
